The results in this text go back to patent US20240035012A1 (WESTLAKE UNIVERSITY, published 2024).

Values joined by “and” are separate entries in the source; they are usually repeats but may differ in a detail not shown here. Equal values may be shown once.

The labels stand for the following.
B1: ACE2 M2-AP15-foldon (receptor)
chain: QSTIEEQAKYFLDKFNHEAEDLFYQSSLASWNYNTNITEENVQNMNNAGDKWSAFLKEQSTYAQMYPLQEIQNLTVKLQLQALQQNGSSVLSEDKSKRLNTILNTMSTIYSTGKVCNPDNPQECLLLEPGLNEIMANSLDYNERLWAWESWRSEVGKQLRPLYEEYVVLKNEMARANHYEDYGDYWRGDYEVNGVDGYDYSRGQLIEDVEHTFEEIKPLYEHLHAYVRAKLMNAYPSYISPIGCLPAHLLGDMWGRFWTNLYSLTVPFGQKPNIDVTDAMVDQAWDAQRIFKEAEKFFVSVGLPNMTQGFWEYSMLTDPGNVQKAVCHPTAWDLGKGDFRILMCTKVTMDDFLTAHHEMGHIQYDMAYAAQPFLLRNGANEGFHEAVGEIMSLSAATPKHLKSIGLLSPDFQEDNETEINFLLKQALTIVGTLPFTYMLEKWRWMVFKGEIPKDQWMKKWWEMKREIVGVVEPVPHDETYCDPASLFHVSNDYSFIRYYTRTLYQFQFQEALCQAAKHEGPLHKCDISNSTEAGQKLFNMLRLGKSEPWTLALENVVGAKNMNVRPLLNYFEPLFTWLKDQNKNSFVGWSTDWSPYADGSAPAPAPAPAPAPAPAPAPAPAPAPAPAPAPGSGYIPEAPRDGQAYVRKDGEWVLLSTFL
B2: ACE2 M1-AP15-foldon (receptor)
chain: QSTIEEQAKTFLDFFNIQAEDLFYQSSLASWNYNTNITEENVQNMNNAGDKWSAFLKEQSTLAQMYPLQEIQNLTVKLQLQALQQNGSSVLSEDKSKRLNTILNTMSTIYSTGKVCNPDNPQECLLLEPGLNEIMANSLDYNERLWAWESWRSEVGKQLRPLYEEYVVLKNEMARANHYEDYGDYWRGDYEVNGVDGYDYSRGQLIEDVEHTFEEIKPLYEHLHAYVRAKLMNAYPSYISPIGCLPAHLLGDMWGRFWTNLYSLTVPFGQKPNIDVTDAMVDQAWDAQRIFKEAEKFFVSVGLPNMTQGFWENSMLTDPGNVQKAVCHPTAWDLGKGDFRILMCTKVTMDDFLTAHHEMGHIQYDMAYAAQPFLLRNGANEGFHEAVGEIMSLSAATPKHLKSIGLLSPDFQEDNETEINFLLKQALTIVGTLPFTYMLEKWRWMVFKGEIPKDQWMKKWWEMKREIVGVVEPVPHDETYCDPASLFHVSNDYSFIRYYTRTLYQFQFQEALCQAAKHEGPLHKCDISNSTEAGQKLFNMLRLGKSEPWTLALENVVGAKNMNVRPLLNYFEPLFTWLKDQNKNSFVGWSTDWSPYADGSAPAPAPAPAPAPAPAPAPAPAPAPAPAPAPGSGYIPEAPRDGQAYVRKDGEWVLLSTFL
B3: ACE2 M5-AP15-foldon (receptor)
chain: QSTIEEQAKYFLDKFNAEAEDLFYQSSLASWNYNTNITEENVQNMNNAGDKWSAFLKEQSTYAQMYPLQEIQNLTVKLQLQALQQNGSSVLSEDKSKRLNTILNTMSTIYSTGKVCNPDNPQECLLLEPGLNEIMANSLDYNERLWAWESWRSEVGKQLRPLYEEYVVLKNEMARANHYEDYGDYWRGDYEVNGVDGYDYSRGQLIEDVEHTFEEIKPLYEHLHAYVRAKLMNAYPSYISPIGCLPAHLLGDMWGRFWTNLYSLTVPFGQKPNIDVTDAMVDQAWDAQRIFKEAEKFFVSVGLPNMTQGFWEYSMLTDPGNVQKAVCHPTAWDLGKGDFRILMCTKVTMDDFLTAHHEMGHIQYDMAYAAQPFLLRNGANEGFHEAVGEIMSLSAATPKHLKSIGLLSPDFQEDNETEINFLLKQALTIVGTLPFTYMLEKWRWMVFKGEIPKDQWMKKWWEMKREIVGVVEPVPHDETYCDPASLFHVSNDYSFIRYYTRTLYQFQFQEALCQAAKHEGPLHKCDISNSTEAGQKLFNMLRLGKSEPWTLALENVVGAKNMNVRPLLNYFEPLFTWLKDQNKNSFVGWSTDWSPYADGSAPAPAPAPAPAPAPAPAPAPAPAPAPAPAPGSGYIPEAPRDGQAYVRKDGEWVLLSTFL
B4: ACE2 M4-AP15-foldon (receptor)
chain: QSTIEEQAKYFLDFFNIQAEDLFYQSSLASWNYNTNITEENVQNMNNAGDKWSAFLKEQSTYAQMYPLQEIQNLTVKLQLQALQQNGSSVLSEDKSKRLNTILNTMSTIYSTGKVCNPDNPQECLLLEPGLNEIMANSLDYNERLWAWESWRSEVGKQLRPLYEEYVVLKNEMARANHYEDYGDYWRGDYEVNGVDGYDYSRGQLIEDVEHTFEEIKPLYEHLHAYVRAKLMNAYPSYISPIGCLPAHLLGDMWGRFWTNLYSLTVPFGQKPNIDVTDAMVDQAWDAQRIFKEAEKFFVSVGLPNMTQGFWEYSMLTDPGNVQKAVCHPTAWDLGKGDFRILMCTKVTMDDFLTAHHEMGHIQYDMAYAAQPFLLRNGANEGFHEAVGEIMSLSAATPKHLKSIGLLSPDFQEDNETEINFLLKQALTIVGTLPFTYMLEKWRWMVFKGEIPKDQWMKKWWEMKREIVGVVEPVPHDETYCDPASLFHVSNDYSFIRYYTRTLYQFQFQEALCQAAKHEGPLHKCDISNSTEAGQKLFNMLRLGKSEPWTLALENVVGAKNMNVRPLLNYFEPLFTWLKDQNKNSFVGWSTDWSPYADGSAPAPAPAPAPAPAPAPAPAPAPAPAPAPAPGSGYIPEAPRDGQAYVRKDGEWVLLSTFL

This test deals with SARS-CoV-2 spike protein (SARS-CoV-2-S) (SARS-CoV-2, UniProt P0DTC2 14-1273). The experiment in a line: cell-based or functional assay.
For B1, the “IC50, inhibition of SARS-CoV-2 pseudotyped virus (luciferase), Caco-2 cells” value is 0.071 µg/ml and 0.177 nM.
Then B2, with 0.202 µg/ml and 0.505 nM.
Then B3, with 0.052 µg/ml and 0.13 nM; and B4, with 0.071 µg/ml and 0.177 nM.
